Laboratory results: article PMC8481266, “Structural and functional characterization of the bacterial biofilm activator RemA” (Nature Communications, 2021)
Substitutions are numbered along the chain they refer to. Several values for one entry are separate records, joined by “and”; a condition that tells them apart may be missing. Equal entries are not always repeated. Each block holds one molecule with its values, some of them ahead of it.

Key:
[1] = target: (Gt)RemA-R51A/R53A (Geobacillus thermodenitrificans NG-80); assay: crystal structure; sitting-drop crystallisation at 20 °C; X-ray data at ESRF; wild type by Se-SAD, variants by molecular replacement
[2] = target: (Gt)RemA, RemA from Geobacillus thermodenitrificans, wild type, with N-terminal His-tag (Geobacillus thermodenitrificans NG-80); assay: as above
[3] = target: (Gt)RemA, RemA from Geobacillus thermodenitrificans, wild type, with N-terminal His-tag (Geobacillus thermodenitrificans NG-80); assay: as above; remark: listed apart in the source
[4] = target: (Gt)RemA, RemA from Geobacillus thermodenitrificans, wild type, with N-terminal His-tag (Geobacillus thermodenitrificans NG-80); assay: SEC-MALS; analytical SEC-MALS of the two major SEC peaks; (Gt)RemA at 500 µM (Fig. 1b); R18W variant in Supplementary Fig. 1d
[5] = target: (Gt)RemA-R18W (Geobacillus thermodenitrificans NG-80); assay: crystal structure; sitting-drop crystallisation at 20 °C; X-ray data at ESRF; wild type by Se-SAD, variants by molecular replacement
[6] = target: (Gt)RemA-R18W (Geobacillus thermodenitrificans NG-80); assay: SEC-MALS; analytical SEC-MALS of the two major SEC peaks; (Gt)RemA at 500 µM (Fig. 1b); R18W variant in Supplementary Fig. 1d
[7] = target: T1, (Gt)RemA wild type, His-tagged (Geobacillus thermodenitrificans NG-80) (UniProt A4IM41); assay: EMSA; details: 20 mM HEPES pH 8.0, 1000 mM NaCl, 20 mM MgCl2, 20 mM KCl, 0.3 ug/ml BSA, 25 ug/ml herring sperm DNA, 10% glycerol, 0.25 mg/ml Orange-G; 1 pmol DNA in 14.5 ul …
T1 sequence: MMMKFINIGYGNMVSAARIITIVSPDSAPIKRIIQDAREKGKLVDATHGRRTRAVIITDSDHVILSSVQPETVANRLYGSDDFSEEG

[8] = target: T2, (Gt)RemA-R51A R51A (Geobacillus thermodenitrificans NG-80) (UniProt A4IM41); assay: EMSA; details: 20 mM HEPES pH 8.0, 1000 mM NaCl, 20 mM MgCl2, 20 mM KCl, 0.3 ug/ml BSA, 25 ug/ml herring sperm DNA, 10% glycerol, 0.25 mg/ml Orange-G; 1 pmol DNA in 14.5 ul …
T2 sequence: T1 sequence with R51A

[9] = target: T3, (Gt)RemA wild type, tag-free (Geobacillus thermodenitrificans NG-80) (UniProt A4IM41); assay: EMSA; details: 20 mM HEPES pH 8.0, 1000 mM NaCl, 20 mM MgCl2, 20 mM KCl, 0.3 ug/ml BSA, 25 ug/ml herring sperm DNA, 10% glycerol, 0.25 mg/ml Orange-G; 1 pmol DNA in 14.5 ul …
T3 sequence: T1 sequence

[10] = target: T4, (Gt)RemA-R50A R50A (Geobacillus thermodenitrificans NG-80) (UniProt A4IM41); assay: EMSA; details: 20 mM HEPES pH 8.0, 1000 mM NaCl, 20 mM MgCl2, 20 mM KCl, 0.3 ug/ml BSA, 25 ug/ml herring sperm DNA, 10% glycerol, 0.25 mg/ml Orange-G; 1 pmol DNA in 14.5 ul …
T4 sequence: T1 sequence with R50A

[11] = target: T5, (Gt)RemA-R18W R18W (Geobacillus thermodenitrificans NG-80) (UniProt A4IM41); assay: EMSA; details: 20 mM HEPES pH 8.0, 1000 mM NaCl, 20 mM MgCl2, 20 mM KCl, 0.3 ug/ml BSA, 25 ug/ml herring sperm DNA, 10% glycerol, 0.25 mg/ml Orange-G; 1 pmol DNA in 14.5 ul …
T5 sequence: T1 sequence with R18W

[12] = target: (His)-GB1-tagged (Gt)RemA (Geobacillus thermodenitrificans NG-80); assay: SEC; SEC analysis of the (His)-GB1 constructs of (Bs)RemA and (Gt)RemA (Supplementary Figs. 2a, b)
[13] = target: the molecule itself; assay: as above

Molecule: (Gt)RemA-R51A/R53A (natural protein)
stoichiometry N [1]: 8

Molecule: CTCCTCTATTCCTGTCGTTATTTCGTTCATTATAAGGAATTTTTCGTTCTTTATAAAATTTAAAATAATAAGGGAAGTGCAGTAAATTAGAGGAAAATCATGATTTTGTTCTCCAAAGAGAACTTATTGGCTTATTTTGCAATTTTTAAATAATAACGTTTTCTTTTATAATCCAATCATTAACAGAAAGGGGCGCGGGAAGCCAGCCGCGGGAAGGCTGAAGGCTATGAATACATGAATGAGAATATGAGTTTCAAAGAATTATATGCGATTGTCAGACACAGATTCG (double strand) [PepsA 289 bp fragment]
binding [7]: binds
binding [8]: no binding
binding [9]: binds
binding [10]: no binding
binding [11]: binds

B1: (His)-GB1-tagged (Bs)RemA (natural protein, B. subtilis strain 3610, UniProt Q7WY72 1-89, looked up)
chain: MTIKLINIGFGNIISANRMISIVSPESAPIKRMIQDARDRGMLIDATYGRRTRAVVVMDSDHIILSAVQPETVAHRLSVKEEIMDEGQG
notes: RemA of Bacillus subtilis strain 3610; MW 9.6 kDa; A TEV cleavage site stands between the solubility tag and RemA; removal of the tag led to precipitation; also called His-GB1-(Bs)RemA; (Bs)RemA (His)-GB1 construct; not shown: His, N-terminal, kept
stoichiometry N [13]: 8

Second part, the molecule after the results:

stoichiometry N [2]: 8
stoichiometry N [3]: 16
stoichiometry N [4]: 16 and 8
Molecule: (Gt)RemA, RemA from Geobacillus thermodenitrificans, wild type, with N-terminal His-tag (natural protein)

stoichiometry N [5]: 7
stoichiometry N [6]: 14 and 7
Molecule: (Gt)RemA-R18W (natural protein)

stoichiometry N [12]: 8
Molecule: (His)-GB1-tagged (Gt)RemA (natural protein)
